Measurements as given in PMC6859074.

Columns and labels:
[1] = biological target: 14 subunit-CCAN complex (constitutive centromere associated network), S. cerevisiae (S. cerevisiae) (UniProt P35201); assay: AUC
[2] = biological target: S. cerevisiae Cenp-A nucleosome wrapped with the 147 bp Widom 601 sequence (S. cerevisiae) (UniProt P36012); assay: AUC
[3] = biological target: 14 subunit-CCAN complex (constitutive centromere associated network), S. cerevisiae (S. cerevisiae) (UniProt P35201); assay: SEC-MALS
[4] = biological target: S. cerevisiae Cenp-A nucleosome wrapped with the 147 bp Widom 601 sequence (S. cerevisiae) (UniProt P36012); assay: SEC-MALS + AUC
[5] = biological target: 14 subunit-CCAN complex (constitutive centromere associated network), S. cerevisiae (S. cerevisiae) (UniProt P35201); assay: cryo-EM structure

## 14 subunit-CCAN complex (constitutive centromere associated network), S. cerevisiae (from UniProt P35201;Q12262;Q12748;P47167;P43618;Q2V2P8;P38265;P38907;Q06675;Q02732;P53298;P38313;Q12493;Q06162)
[1]
  stoichiometry N: 2
[2]
  stoichiometry N (CCAN per Cenp-A^Nuc): 1
[3]
  stoichiometry N: 2
[4]
  stoichiometry N (CCAN per Cenp-A^Nuc): 2
[5]
  stoichiometry N: 2
